Test results taken from the NTF2 design screens of Basanta et al. (2020).

assay: protease stability score; higher = more stable; yeast display proteolysis, trypsin and chymotrypsin;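 also: relative to predicted unfolded state with 0 unfolded-like and 1 meaning tenfold more protease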

Sequence | protease stability score
DEEEDVMRKWLQLFLEAFETGDFRLIEEMFDPNTRLDVGDKEYHGRDEIARVIRTLWEEMRFEHFHIHRFDVFNGVANSDTHVVGKIGDKRRDVRVHIILIIVNGKLKKFRIETR | 1.71
SEDEEAIRHALRIFEEVLQTGDEHSIENLFDPNTRIDINGKHLHGWHKLEEWLSRFDHLEVHVHIHSSNVFDGRIHNDTRVKMHLYINGKIIELHQETHIISKKVNGRWYVKMIIIR | 1.17
SEDEDFMQKALKHDWELWETGDEEKIQKQADPHVRMDFDGVEYHGMELFSELLDRYLRKVKGLQIRLRHVHVKIINGQAIMDIDGTVNINGREIRLHIKIFNEKINGKWIHSSIRFEFR | 1.21
DELHEDAEKAWRYRLEILRTGDPDSILELMDPDVRIEQGDKKFHGRELTEKFMKWLMDHARYEFFHLKDMRTYGNKVETDGYVVGNVDGQEHIVHVHVYSLKVNGRWTIKSIEIK | 1.37
SDEMEEYEDFMKRVLEALETGDFREIRHLFDPDVKIHIDGRDIVGRESYTEHVRKWREDLGFDHIHLKIHDVKLFDGQIHVDARLEIRIGDKRDSHNVEFRLHKVDGQWLVRRVHVH | 1.6
SEDERQAEEASEQFLRSVETGDFDELSRLFDPDMKVVFNGKELHGRETYIRLERERRRDLGIKHVKVRVKDFRIINGRLHLHTELEFNVGDKSFTHESRYTWEKVNGRWVIRSVDID | 2.15
DEDERRDRELAEHFEHLWMTGDEETLVENLDPNARVKVGDKENHGREAFILFLREFGIDHFEFRDSKIVNGQVHIDGEIDWNGRRTRVEHIVKIVDGKVKHWEIRIK | 1.52
SEKEEELHRALRLWLHAWETGDFHTITKLLDPHARSDVNGVELHGREEISRHHRELRTHDMRIRDEKVHMQGDYLIIILHIHTDVQIGDKRIETDLLIIIIHVKVNGRWSLRSISLEFR | 0.035
DDLEEATEFYIKLYYEAVETGDERLITELADPNMRIDWNGREIHGREEFVRRLREMRVSRIEVQHVDKYGDKLHIHVRIIIEVGDKKIESSSHLISLKFNGRWLLKSMWIK | 1.39
HDEDEESRNAVEEYWRVLHTGDEKRWHELADPNVRNEIDGRTYHGRESFRFLFHLHEEKFKNVKIELHSVNIQGDKIKMLIEIKYGDKNIHMIIIAQKIDGKWKNERIHVFHH | 0.744
SEEEHMIELIVKWYSRALETGDEEELAEMLDPNTRLDVDGKDIHGRENILKRRKKHLDHLGHERIEIHFDVSHIDYIGDKVIIHVKLILHYNGREIHLDVKMLIVKINGRWRFRHFESK | 1.93
SEDEEKTRKFIELFLYLWVTGDEDSLSELLDPNVRAEVNGKSAHGRDEVSKLSDVFMKELGVKHTRQTTQHRYEIQGDKLKSHLTIDIEVDGQNVKEFVVIVVEKINGRWIIRHIRFE | 1.1
TEHDEDLDRWYDVLKHVLHTGDEEAKAKMVDPHVREDVNGQELHGRDDVRRLDRELGVNHFVLRVERLNIQGNKITMRGTLELTVGDKTERRHVIIHMIKIDGKWFTHHEQIR | 1.04
DDIEKDMERFTHVWLEAWRTGDEDLAKELFDPNTRVEQGDKKYHGRTEFVNLLSHIRIRDMRIHDIHYIVIDGKAIIDFDGELTIDVNGRFHRHRVIIHVEVIKINGQWEISQMRIEVR | 1.11
SDDERLAHHLVELLLHNIETGDFRMLMHLIDPNVRIDINGVEIHGREEWHKHLRTLGFDHFELHIDSIDAFDGKVIVHTTIRIKYNGVHFEKKTHLIAEKFDGRWYMREIRER | 1.55
SEEDEHMRRLVEIIIHNWHTGDEEKLANMMDPNAKSNINGVELIGRDLITSFLKEELKRLGVKHVHDTEIHLQGNKSIIHSRVHVNGVDIEMEIIIIIIDGVIKEVEWRRR | 1.96
SEDEKSIKVAIELIINSVRTGDERFIKELADPHVRLEIGNKRVHGREEFAKLLSEENRQMRIHIIIDDVKSVGDFVFIRGTIEIHIDGVEERREFEIFVWKFNGRWVIKEERIH | 1.43
DEEEKLARKIVEDWVRAMTTGDEDDLRRLADPNVRHDINGVELHGMDEWLRVLLERGYEIRIQFRHIRVYDGRVEIDIDLEIRIGDKHHHHHVHLIFEKIDGRWRMKSEKTD | 1.9

Sequence | protease stability score
DETASRAAERYMKALQTGDPDEVVKQIDPNVHVRVGDKEVQGKEQFRKKQERDKKQARYHIKHVTFNVEGDKVRVDVIFRKHHNGQPRHDRMEQRMSVRGDKITHQENHKTG | 0.172
DEKKEDIDRMVKEIHTIFATGDEDRFKELLDPNVRVDVDGKKRHGREDATEHFRKWVLTLGIDHSRVHSVHTIDGVVFLEIRFDVNGQTIKVRVLAVKVDGQWLIEEVEIRWK | 2.38
DEEHEAIEQFLRIIIENARTGNEEFLYKYFDPHVRIHIDGQNMVGREEWVEWLRQIRHQVDSFHIKHIEVQGDKLILEGHLEIKLHINGQELHKHVEVRYEINKVNGRWLLRSVHIK | 1.74
HEDEKEAEDAVREFLHNVSTGDEERMLELMDPNARLIYNGREYHGRELITHLIRELGVKVVRWRHLEVQGEKVHVDLRDTVGDKTIKTHLIFHKINGKWKVDEVKFD | 2.26
DEEKEVMKELYEMLIHDLLTGNEESLHKLLDPHVKVDIDGKILHGMEATVKWWKEAGADHTDIHSVERQGEKIIINMILRVGDKTLRLHVHIIVVNGRVESIRVELRHE | 1.01
DEATEKAKKAYELWMHSLKTGDEHHLKNLMDPDVRVIIDGVDMHGWEAAHFERRRFDHIHRVHVDHYEFQGNKSIWDGTVDGKVGDKEHRNRRIIIMNVVDGRYKSIHLHVE | 0.991
DDKEEHWHELNRIYFEWFRTGDEELIAKNADPNVRYHIDGREFHGREDFDKLMDHLSRKFKNARIEFDDMRWQGDKLHLRGTLRVGDKNIDTRIHIVIVNGQLHLIIHIRD | 1.31
DDLEHQARESLDLHTEARKTGDEDQLKNLIDPHVRIEQGDKHIHGMEMFIRHWHKLGADHSEFRLKHVRVIDGRVRIDGEMIIHINGRTISIEVHFNINKINGRWIITEIHIH | 1.09
SEEEEIVKRFIELLDHVMKTGDEKFYEHMADPNTRVKQGEFEDHGREAFRWFLKEIRSKDVKTEHVELFDGRLRVEGRLLGVFNGQHVELHMILISVKVDGRWRVKMVIIH | 1.52
DEDDRDMREFWELLFHYLLTGDWESLEKLIDPNARIRVNGKELHGMHYHIRQLTHEVKRFDHIDQRIHHSSVINGKIHLDIHLIINVDGQSFVIHIKMHVDKVDGRWLTRSVHIH | 1.09
TEEERDVEKFIRDTLHYLHTGDEDAVAELMDPNVKFIIGDKHLHGMEALEYWSERFDHFHVRRLEIHHFEIINGRVHIELRIWVEVRYNGRIFELEFRSEYIMYKIDGKWVIKHVRHT | 1.56
DEDLEESHYAIEYLIRLFETGDWDTVDRFFDPRTRLRVNGKNHHGREEVTEFVEDILKRYDHKQFTFTHVEFQGEKIILHGKLHLDINGVHFEHDFILIIKKIDGRWYVDEIHIS | 1.39
TEEEHWALHLLERILHHMLTGNESFIKHLFDPDTRWEVNGVENIGMERHSKLFLHMRIESIEIRSIHVRIVGEYIHIDVEIDIRGIVNGQRVEYHKKIHVIISKVNGRWHIKHYHESDE | 1.22
EEEEKHAKHVAKEFLRLLFTGNEHRLKEYLDPNVRLDVNGQEFHGWEEIVKWLREIRFEDSRLHRIRVVGDKIDIDGELDGVINGRRVDRRSIIILFVVDGRYTEVTYRNI | 1.26
SEVEHALHEILEILVKIMKTGNFEDLIRNFDPHVQLEFNGKRYHGREAEHFLRERFDHNRHHHVHEVRVQGDKVELHGKLIGEFNGREEEVHIDIIAHKINGRWIFKSVHFR | 2.15
LESEEDLREAIRILIEDLRTGDEDSLHNLLDPNVRIDVNGVKLHGMEWVSHTIRHLGVKHTYVINRRIKIQGNKVDIDGEFNLRYDGKEERRRITLHVQKIDGVWVIEEITIR | 0.971
SEEHHSEKLAIHLSKEISHTGDETWIKKMLDPNVKIVIGDKEFHGMENFVTHWHRLVKELGVDRVRHRVEDSDVQGDKLTMHVEIEVNGRKVESHIIAHKFNGRWLVKEIIFH | 1.23
SYHEKEALDLYRMTIHNYLTGDWKEWHRLFDPHVRIRIGDKELHGMENFAKWEEDLEKDLGVDHVEIRLRDMEVQGDKFTSDGELRLHIDGRTIRHKVEFHLEVINGRIKSHRINIH | 1.04
